Source: US20130217145A1 (published 2013)

What was measured:
Assay in all cases: FCS competition against 2 nM Alexa488-PIVKAII (13-27) premixed with 10 nM mAb 3C10
[1] = target: T1, Gla domain Factor X sequence 12 peptide
T1 construct: Homologous series peptide; also called PIVKAII Gla domain (13-27) analog, Factor X
T1 peptide: LERECMEETCSYEEA
Description: (§1) FCS measurements were performed on each sample after overnight incubation.

[2] = target: T2, Gla domain Factor IX sequence 11 peptide
T2 construct: Homologous series peptide; also called PIVKAII Gla domain (13-27) analog, Factor IX
T2 peptide: LERECMEEKCSFEEA
Description: as §1

[3] = target: T3, Gla domain Factor VII sequence 13 peptide
T3 construct: Homologous series peptide; also called PIVKAII Gla domain (13-27) analog, Factor VII
T3 peptide: LERECKEEQCSFEEA
Description: as §1

[4] = target: T4, Gla domain Protein C sequence 14 peptide
T4 construct: Homologous series peptide; also called PIVKAII Gla domain (13-27) analog, Protein C
T4 peptide: LERECIEEICDFEEA
Description: as §1

[5] = target: T5, Gla domain Protein Z sequence 16 peptide
T5 construct: Homologous series peptide; also called PIVKAII Gla domain (13-27) analog, Protein Z
T5 peptide: LEKECYEEICVYEEA
Description: as §1

[6] = target: T6, Gla domain Protein S sequence 15 peptide
T6 construct: Homologous series peptide; also called PIVKAII Gla domain (13-27) analog, Protein S
T6 peptide: LERECIEELCNKEEA
Description: as §1

Measured: binding result

B1: Anti-PIVKA-II monoclonal antibody 3C10 (antibody, V domains shown)
VH: EVQLVESGGDLVKPGGSLKLSCAASGFTFSSYGMSWVRQTPDKRLEWVATISRGGSSTYYPDSVKGRFTISRDNAKNNLYLQMSSLKSEDTAMYYCASLNYGNFFDYWGQGTTLTVSS
VL: DVVMTQTPLSLPVSLGDQASISCRSSQSLVHSNGNTYLHWYLQKPGQSPKLLIYKVSNRFSGVPDRFSGSGSGTDFTLKISRVEAEDLGVYFCSQNRHVPPTFGGGTKLEIKR
notes: Mouse hybridoma antibody from a GANP transgenic C57BL/6 mouse; For the Kd measurement the antibody carried Black Hole Quencher (I.R. 2.3); also called mAb 3C10; clone 3C10
no binding: all assays above
